According to patent publication US20230074436A1 (DENALI THERAPEUTICS, published 2023):
No end group written: not given here. *: point of attachment. Biotin = O=C1N[C@H]2[C@H](CS[C@H]2CCCCC(=O)*)N1

Columns and labels:
[1] = target: T1, asyn_113-127_114A (human); assay: Ala-scan peptide ELISA, row A, run 1
T1 construct: substitution is already in the entry; also called pep3
T1 peptide: Biotin-LADMPVDPDNEAYEM

[2] = target: T2, asyn_113-127_118A (human); assay: Ala-scan peptide ELISA, row A, run 1
T2 construct: substitution is already in the entry; also called pep7
T2 peptide: Biotin-LEDMPADPDNEAYEM

[3] = target: T3, asyn_113-127_119A (human); assay: Ala-scan peptide ELISA, row A, run 1
T3 construct: substitution is already in the entry; also called pep8
T3 peptide: Biotin-LEDMPVAPDNEAYEM

[4] = target: T4, asyn_113-127_121A (human); assay: Ala-scan peptide ELISA, row A, run 1
T4 construct: substitution is already in the entry; also called pep10
T4 peptide: Biotin-LEDMPVDPANEAYEM

[5] = target: T5, asyn_113-127_122A (human); assay: Ala-scan peptide ELISA, row A, run 1
T5 construct: substitution is already in the entry; also called pep11
T5 peptide: Biotin-LEDMPVDPDAEAYEM

[6] = target: T6, asyn_113-127_124G (human); assay: Ala-scan peptide ELISA, row A, run 1
T6 construct: substitution is already in the entry; also called pep13
T6 peptide: Biotin-LEDMPVDPDNEGYEM

[7] = target: T7, asyn_113-127_124P (human); assay: Ala-scan peptide ELISA, row A, run 1
T7 construct: substitution is already in the entry; also called pep14
T7 peptide: Biotin-LEDMPVDPDNEPYEM

[8] = target: T8, asyn_113-127_126A (human); assay: Ala-scan peptide ELISA, row A, run 1
T8 construct: substitution is already in the entry; also called pep16
T8 peptide: Biotin-LEDMPVDPDNEAYAM

[9] = target: T9, biotinylated human alpha-synuclein (human, UniProt P37840 1-140); assay: Ala-scan peptide ELISA, row A, run 1
[10] = target: T10, asyn_113-127 (human); assay: Ala-scan peptide ELISA, row B, run 1
T10 construct: also called pep1
T10 peptide: Biotin-LEDMPVDPDNEAYEM

[11] = target: T11, asyn_113-127_113A (human); assay: Ala-scan peptide ELISA, row B, run 1
T11 construct: substitution is already in the entry; also called pep2
T11 peptide: Biotin-AEDMPVDPDNEAYEM

[12] = target: T1, asyn_113-127_114A; assay: Ala-scan peptide ELISA, row B, run 1
[13] = target: T12, asyn_113-127_115A (human); assay: Ala-scan peptide ELISA, row B, run 1
T12 construct: substitution is already in the entry; also called pep4
T12 peptide: Biotin-LEAMPVDPDNEAYEM

[14] = target: T13, asyn_113-127_116A (human); assay: Ala-scan peptide ELISA, row B, run 1
T13 construct: substitution is already in the entry; also called pep5
T13 peptide: Biotin-LEDAPVDPDNEAYEM

[15] = target: T14, asyn_113-127_117A (human); assay: Ala-scan peptide ELISA, row B, run 1
T14 construct: substitution is already in the entry; also called pep6
T14 peptide: Biotin-LEDMAVDPDNEAYEM

[16] = target: T2, asyn_113-127_118A; assay: Ala-scan peptide ELISA, row B, run 1
[17] = target: T3, asyn_113-127_119A; assay: Ala-scan peptide ELISA, row B, run 1
[18] = target: T15, asyn_113-127_120A (human); assay: Ala-scan peptide ELISA, row B, run 1
T15 construct: substitution is already in the entry; also called pep9
T15 peptide: Biotin-LEDMPVDADNEAYEM

[19] = target: T4, asyn_113-127_121A; assay: Ala-scan peptide ELISA, row B, run 1
[20] = target: T5, asyn_113-127_122A; assay: Ala-scan peptide ELISA, row B, run 1
[21] = target: T16, asyn_113-127_123A (human); assay: Ala-scan peptide ELISA, row B, run 1
T16 construct: substitution is already in the entry; also called pep12
T16 peptide: Biotin-LEDMPVDPDNAAYEM

[22] = target: T6, asyn_113-127_124G; assay: Ala-scan peptide ELISA, row B, run 1
[23] = target: T7, asyn_113-127_124P; assay: Ala-scan peptide ELISA, row B, run 1
[24] = target: T17, asyn_113-127_125A (human); assay: Ala-scan peptide ELISA, row B, run 1
T17 construct: substitution is already in the entry; also called pep15
T17 peptide: Biotin-LEDMPVDPDNEAAEM

[25] = target: T8, asyn_113-127_126A; assay: Ala-scan peptide ELISA, row B, run 1
[26] = target: T18, asyn_113-127_127A (human); assay: Ala-scan peptide ELISA, row B, run 1
T18 construct: substitution is already in the entry; also called pep17
T18 peptide: Biotin-LEDMPVDPDNEAYEA

[27] = target: T9, biotinylated human alpha-synuclein; assay: Ala-scan peptide ELISA, row B, run 1
[28] = target: T10, asyn_113-127; assay: Ala-scan peptide ELISA, row H, run 2
[29] = target: T13, asyn_113-127_116A; assay: Ala-scan peptide ELISA, row H, run 2
[30] = target: T14, asyn_113-127_117A; assay: Ala-scan peptide ELISA, row H, run 2
[31] = target: T3, asyn_113-127_119A; assay: Ala-scan peptide ELISA, row H, run 2
[32] = target: T4, asyn_113-127_121A; assay: Ala-scan peptide ELISA, row H, run 2
[33] = target: T16, asyn_113-127_123A; assay: Ala-scan peptide ELISA, row H, run 2
[34] = target: T18, asyn_113-127_127A; assay: Ala-scan peptide ELISA, row H, run 2
[35] = target: human alpha-synuclein monomer (human, UniProt P37840 1-140); assay: direct ELISA, plate coated with 1 µg/mL recombinant human alpha-synuclein, antibody titrated, anti-rat HRP, A450

A450 [1]: 0.505 OD | A450 [2]: 0.504 OD | A450 [3]: 0.063 OD | A450 [4]: 0.496 OD | A450 [5]: 0.06 OD | A450 [6]: 0.371 OD | A450 [7]: 0.055 OD | A450 [8]: 0.371 OD | A450 [9]: 0.66 OD | A450 [10]: 0.501 OD | A450 [11]: 0.462 OD | A450 [12]: 0.471 OD | A450 [13]: 0.486 OD | A450 [14]: 0.501 OD | A450 [15]: 0.527 OD | A450 [16]: 0.509 OD | A450 [17]: 0.058 OD | A450 [18]: 0.393 OD | A450 [19]: 0.49 OD | A450 [20]: 0.058 OD | A450 [21]: 0.546 OD | A450 [22]: 0.366 OD | A450 [23]: 0.047 OD | A450 [24]: 0.049 OD | A450 [25]: 0.35 OD | A450 [26]: 0.333 OD | A450 [27]: 0.711 OD | A450 [28]: 0.064 OD | A450 [29]: 0.073 OD | A450 [30]: 0.083 OD | A450 [31]: 0.046 OD | A450 [32]: 0.069 OD | A450 [33]: 0.068 OD | A450 [34]: 0.066 OD | EC50 (read off the curve) [35]: ~0.2 µg/mL
B1: 20H4 (antibody, rat IgG2b, V domains shown)
VH: AVQLVESGGGLVQPKESLKISCAASGFTFSNAAMYWVRQAPGKGLELLARIRTKPNNYATYHADSVKGRFTISRDDSQSMVYLHMGNLKTEDTAMYYCTADMATGDYWGPGVMVTVSS
VL: DIQMTQSPPVLSVSVGDRVTLSCKASQNINKNLDWYQQKHGEAPKPLIYSTNNLQTGVPSRFSGSGSGTDYTLTISSLQPEDVATYYCYQYKSAWTFGGGTKLELR
notes: also called clone 20H4; rat 20H4
